Eight molecules from patent EP4722253A1 (dated 2026) can be followed below.

Test [1] deals with T1, C1q, complement component 1q (UniProt P02745 23-245; P02746 28-253; P02747 29-245).
T1 construct: also called Clq
Description: BLI (Octet HTX), antibody on FAB2G biosensor, C1q in solution. On the technique in general: In BLI a coated tip is dipped into the sample, and binding shifts an interference pattern.

The target of another test is T2, FcγRIIa (UniProt P12318 34-217).
T2 sequence (looked up): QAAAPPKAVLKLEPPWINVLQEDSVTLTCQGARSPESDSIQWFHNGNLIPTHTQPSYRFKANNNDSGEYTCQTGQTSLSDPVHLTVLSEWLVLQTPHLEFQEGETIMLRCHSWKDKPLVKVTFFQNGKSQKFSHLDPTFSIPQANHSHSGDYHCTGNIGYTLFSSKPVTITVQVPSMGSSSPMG
Description: BLI (Octet HTX), antibody on FAB2G biosensor, FcγRIIa in solution.

In the next test the target is T3, FcγRIIIa (UniProt P08637 17-208).
T3 construct: also called FcyRIIIa
Kind of test: BLI (Octet HTX), antibody on FAB2G biosensor, FcγRIIIa in solution.

Another test has as its target T4, FcRn (UniProt P55899 24-297).
T4 construct: also called neonatal Fc receptor
Description: BLI (Octet HTX), antibody on FAB2G biosensor, FcRn in solution, pH 6.0.

T4 sequence (P55899 24-297 limits assumed, form in doubt): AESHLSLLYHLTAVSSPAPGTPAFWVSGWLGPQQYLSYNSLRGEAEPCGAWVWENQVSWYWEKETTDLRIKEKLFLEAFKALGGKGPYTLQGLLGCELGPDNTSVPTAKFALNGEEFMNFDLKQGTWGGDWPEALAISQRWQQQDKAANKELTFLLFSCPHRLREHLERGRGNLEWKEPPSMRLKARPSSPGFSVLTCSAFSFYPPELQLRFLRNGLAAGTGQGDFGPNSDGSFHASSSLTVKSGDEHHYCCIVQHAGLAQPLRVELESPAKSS
T3 sequence (P08637 17-208 limits assumed): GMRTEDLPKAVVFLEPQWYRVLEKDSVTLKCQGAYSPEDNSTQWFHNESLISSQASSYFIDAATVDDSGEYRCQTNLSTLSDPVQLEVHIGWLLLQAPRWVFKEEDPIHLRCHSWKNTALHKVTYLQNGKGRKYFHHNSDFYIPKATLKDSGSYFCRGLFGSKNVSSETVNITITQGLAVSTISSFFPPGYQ
T1 sequence (P02745 23-245 limits assumed, chain 1 of 3): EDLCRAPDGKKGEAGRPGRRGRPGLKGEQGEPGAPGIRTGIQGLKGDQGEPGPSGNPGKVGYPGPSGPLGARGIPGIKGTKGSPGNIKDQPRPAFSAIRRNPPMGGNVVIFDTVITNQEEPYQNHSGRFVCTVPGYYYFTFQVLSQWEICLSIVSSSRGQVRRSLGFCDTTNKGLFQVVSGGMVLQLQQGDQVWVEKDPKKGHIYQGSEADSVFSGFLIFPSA
T1 sequence (P02746 28-253 limits assumed, chain 2 of 3): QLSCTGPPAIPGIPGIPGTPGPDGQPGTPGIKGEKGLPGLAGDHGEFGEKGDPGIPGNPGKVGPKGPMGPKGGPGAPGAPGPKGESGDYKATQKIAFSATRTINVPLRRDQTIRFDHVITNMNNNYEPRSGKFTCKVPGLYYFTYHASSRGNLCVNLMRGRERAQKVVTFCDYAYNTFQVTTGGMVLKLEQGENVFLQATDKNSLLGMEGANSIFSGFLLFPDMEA
T1 sequence (P02747 29-245 limits assumed, chain 3 of 3): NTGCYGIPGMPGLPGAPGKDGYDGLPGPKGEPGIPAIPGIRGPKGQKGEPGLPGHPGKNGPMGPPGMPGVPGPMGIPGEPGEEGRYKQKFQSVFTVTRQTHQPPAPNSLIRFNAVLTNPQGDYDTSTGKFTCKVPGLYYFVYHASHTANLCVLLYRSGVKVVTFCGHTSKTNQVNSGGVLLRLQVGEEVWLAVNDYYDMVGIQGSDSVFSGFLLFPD

B1: Q-SBL-109 (bispecific antibody, human IgG1, kappa)
heavy 1: not shown
heavy 2: EVQLVESGGGLVQPGGSLRLSCAASGYTFTNYGMNWVRQAPGKGLEWVGWINTYTGEPTYAADFKRRFTFSLDTSKSTAYLQMNSLRAEDTAVYYCAKYPHYYGSSHWYFDVWGQGTLVTVSSASTKGPSVFPLAPSSKSTSGGTAALGCLVKDYFPEPVTVSWNSGALTSGVHTFPAVLQSSGLYSLSSVVTVPSSSLGTQTYICNVNHKPSNTKVDKKVEPKSCDKTHTCPPCPAPELLGGPSVFLFPPKPKDTLMISRTPEVTCVVVDVSHEDPEVKFNWYVDGVEVHNAKTKPREEQYNSTYRVVSVLTVLHQDWLNGKEYKCKVSNKALPAPIEKTISKAKGQPREPQVCTLPPSRREMTKNQVSLWCLVKGFYPSDIAVEWESNGQPENNYKTTPPVLDSDGSFFLYSKLTVDKSRWQQGNVFSCSVMHEALHNHYTQKSLSLSPGK
light 1: not shown
light 2: not shown
notes: copies: 1 + 1 + 1 + 1
One may read the Kd as the free concentration of one partner at which half of the binding sites on the other are occupied at equilibrium, for simple one-to-one binding. As to B1, the dissociation constant (Kd) came out at 28 nM in test [1], 2200 nM with FcγRIIa, 340 nM in the test with FcγRIIIa and 640 nM in the test with FcRn.

B2: Q-SBL-116 (bispecific antibody, human IgG1, kappa)
heavy 1: not shown
heavy 2: EVQLVESGGGLVQPGGSLRLSCAASGYTFTNYGMNWVRQAPGKGLEWVGWINTYTGEPTYAADFKRRFTFSLDTSKSTAYLQMNSLRAEDTAVYYCAKYPHYYGSSHWYFDVWGQGTLVTVSSASTKGPSVFPLAPSSKSTSGGTAALGCLVKDYFPEPVTVSWNSGALTSGVHTFPAVLQSSGLYSLSSVVTVPSSSLGTQTYICNVNHKPSNTKVDKKVEPKSCDKTHTCPPCPAPELLGGPSVFLFPPKPKDTLMISRTPEVTCVVVDVSHEDPEVKFNWYVDGVEVHNAKTKPREEQYNSTYRVVSVLTVLHQDWLNGKEYKCKVSNKALPAPIEKTISKAKGQPREPQVCTLPPSRKEMTKNQVSLWCLVKGFYPSDIAVEWESNGQPENNYKTTPPVLDSDGSFFLYSKLTVDKSRWQQGNVFSCSVMHEALHNHYTQKSLSLSPGK
light 1: not shown
light 2: not shown
notes: copies: 1 + 1 + 1 + 1
In the case of B2, the Kd in test [1] is 33 nM; with FcγRIIa it was 2340 nM; in the test with FcγRIIIa, 370 nM; with FcRn it was 650 nM.

B3: Q-SBL-137 (bispecific antibody, human IgG1, kappa)
heavy 1: not shown
heavy 2: EVQLVESGGGLVQPGGSLRLSCAASGYTFTNYGMNWVRQAPGKGLEWVGWINTYTGEPTYAADFKRRFTFSLDTSKSTAYLQMNSLRAEDTAVYYCAKYPHYYGSSHWYFDVWGQGTLVTVSSASTKGPSVFPLAPSSKSTSGGTAALGCLVKDYFPEPVTVSWNSGALTSGVHTFPAVLQSSGLYSLSSVVTVPSSSLGTQTYICNVNHKPSNTKVDKKVEPKSCDKTHTCPPCPAPELLGGPSVFLFPPKPKDTLMISRTPEVTCVVVDVSHEDPEVKFNWYVDGVEVHNAKTKPREEQYNSTYRVVSVLTVLHQDWLNGKEYKCKVSNKALPAPIEKTISKAKGQPREPQVCTLPPSREEMTKNQVSLWCLVKGFYPSDIAVEWESNGQPENNYKTTPPVLDSDGSFFLYSSLTVDKSRWQQGNVFSCSVMHEALHNHYTQKSLSLSPGK
light 1: not shown
light 2: not shown
notes: copies: 1 + 1 + 1 + 1
As to B3, the Kd in test [1] was found to be 24 nM; in the test with FcγRIIa, 2120 nM; with FcγRIIIa, 380 nM; with FcRn, 580 nM.

B4: Q-SBL-115 (bispecific antibody, human IgG1, kappa)
heavy 1: not shown
heavy 2: EVQLVESGGGLVQPGGSLRLSCAASGYTFTNYGMNWVRQAPGKGLEWVGWINTYTGEPTYAADFKRRFTFSLDTSKSTAYLQMNSLRAEDTAVYYCAKYPHYYGSSHWYFDVWGQGTLVTVSSASTKGPSVFPLAPSSKSTSGGTAALGCLVKDYFPEPVTVSWNSGALTSGVHTFPAVLQSSGLYSLSSVVTVPSSSLGTQTYICNVNHKPSNTKVDKKVEPKSCDKTHTCPPCPAPELLGGPSVFLFPPKPKDTLMISRTPEVTCVVVDVSHEDPEVKFNWYVDGVEVHNAKTKPREEQYNSTYRVVSVLTVLHQDWLNGKEYKCKVSNKALPAPIEKTISKAKGQPREPQVCTLPPSRERMTKNQVSLWCLVKGFYPSDIAVEWESNGQPENNYKTTPPVLDSDGSFFLYSKLTVDKSRWQQGNVFSCSVMHEALHNHYTQKSLSLSPGK
light 1: not shown
light 2: not shown
notes: copies: 1 + 1 + 1 + 1
Regarding B4, the equilibrium dissociation constant (Kd) in test [1] came to 18 nM; with FcγRIIa, 1970 nM; with FcγRIIIa, 290 nM; with FcRn, 690 nM.

B5: Q-SBL-127 (bispecific antibody, human IgG1, kappa)
heavy 1: not shown
heavy 2: EVQLVESGGGLVQPGGSLRLSCAASGYTFTNYGMNWVRQAPGKGLEWVGWINTYTGEPTYAADFKRRFTFSLDTSKSTAYLQMNSLRAEDTAVYYCAKYPHYYGSSHWYFDVWGQGTLVTVSSASTKGPSVFPLAPSSKSTSGGTAALGCLVKDYFPEPVTVSWNSGALTSGVHTFPAVLQSSGLYSLSSVVTVPSSSLGTQTYICNVNHKPSNTKVDKKVEPKSCDKTHTCPPCPAPELLGGPSVFLFPPKPKDTLMISRTPEVTCVVVDVSHEDPEVKFNWYVDGVEVHNAKTKPREEQYNSTYRVVSVLTVLHQDWLNGKEYKCKVSNKALPAPIEKTISKAKGQPREPQVCTLPPSREEMTKNQVSLWCLVKGFYPSDIAVEWESNGQPENNYKTTPPVLFSDGSFFLYSKLTVDKSRWQQGNVFSCSVMHEALHNHYTQKSLSLSPGK
light 1: not shown
light 2: not shown
notes: copies: 1 + 1 + 1 + 1
As for B5, the Kd in test [1] was found to be 18 nM; with FcγRIIa, 1630 nM; with FcγRIIIa, 230 nM; with FcRn, 750 nM.

B6: Q-SBL-131 (bispecific antibody, human IgG1, kappa)
heavy 1: not shown
heavy 2: EVQLVESGGGLVQPGGSLRLSCAASGYTFTNYGMNWVRQAPGKGLEWVGWINTYTGEPTYAADFKRRFTFSLDTSKSTAYLQMNSLRAEDTAVYYCAKYPHYYGSSHWYFDVWGQGTLVTVSSASTKGPSVFPLAPSSKSTSGGTAALGCLVKDYFPEPVTVSWNSGALTSGVHTFPAVLQSSGLYSLSSVVTVPSSSLGTQTYICNVNHKPSNTKVDKKVEPKSCDKTHTCPPCPAPELLGGPSVFLFPPKPKDTLMISRTPEVTCVVVDVSHEDPEVKFNWYVDGVEVHNAKTKPREEQYNSTYRVVSVLTVLHQDWLNGKEYKCKVSNKALPAPIEKTISKAKGQPREPQVCTLPPSREEMTKNQVSLWCLVKGFYPSDIAVEWESNGQPENNYKTTPPVLFSDGSFFLYSKLTVDKSRWQQGNVFSCSVMHEALHNHYTQKSLSLSPGK
light 1: not shown
light 2: not shown
notes: copies: 1 + 1 + 1 + 1
For the molecule B6, the Kd in test [1] was found to be 16 nM; in the test with FcγRIIa, 1620 nM; in the test with FcγRIIIa, 330 nM; with FcRn, 670 nM.

B7: Q-SBL-111 (bispecific antibody, human IgG1, kappa)
heavy 1: not shown
heavy 2: EVQLVESGGGLVQPGGSLRLSCAASGYTFTNYGMNWVRQAPGKGLEWVGWINTYTGEPTYAADFKRRFTFSLDTSKSTAYLQMNSLRAEDTAVYYCAKYPHYYGSSHWYFDVWGQGTLVTVSSASTKGPSVFPLAPSSKSTSGGTAALGCLVKDYFPEPVTVSWNSGALTSGVHTFPAVLQSSGLYSLSSVVTVPSSSLGTQTYICNVNHKPSNTKVDKKVEPKSCDKTHTCPPCPAPELLGGPSVFLFPPKPKDTLMISRTPEVTCVVVDVSHEDPEVKFNWYVDGVEVHNAKTKPREEQYNSTYRVVSVLTVLHQDWLNGKEYKCKVSNKALPAPIEKTISKAKGQPREPQVCTLPPSRREMTKNQVSLWCLVKGFYPSDIAVEWESNGQPENNYKTTPPVLDSDGSFFLYSKLTVDKSRWQQGNVFSCSVMHEALHNHYTQKSLSLSPGK
light 1: not shown
light 2: not shown
notes: copies: 1 + 1 + 1 + 1
In the case of B7, the Kd is 30 nM in test [1], 2040 nM in the test with FcγRIIa, 490 nM with FcγRIIIa and 690 nM with FcRn.

B8: Q-SBL-130 (bispecific antibody, human IgG1, kappa)
heavy 1: not shown
heavy 2: EVQLVESGGGLVQPGGSLRLSCAASGYTFTNYGMNWVRQAPGKGLEWVGWINTYTGEPTYAADFKRRFTFSLDTSKSTAYLQMNSLRAEDTAVYYCAKYPHYYGSSHWYFDVWGQGTLVTVSSASTKGPSVFPLAPSSKSTSGGTAALGCLVKDYFPEPVTVSWNSGALTSGVHTFPAVLQSSGLYSLSSVVTVPSSSLGTQTYICNVNHKPSNTKVDKKVEPKSCDKTHTCPPCPAPELLGGPSVFLFPPKPKDTLMISRTPEVTCVVVDVSHEDPEVKFNWYVDGVEVHNAKTKPREEQYNSTYRVVSVLTVLHQDWLNGKEYKCKVSNKALPAPIEKTISKAKGQPREPQVCTLPPSREEMTKNQVSLWCLVKGFYPSDIAVEWESNGQPENNYKTTPPVLFSDGSFFLYSKLTVDKSRWQQGNVFSCSVMHEALHNHYTQKSLSLSPGK
light 1: not shown
light 2: not shown
notes: copies: 1 + 1 + 1 + 1
Regarding B8, the equilibrium dissociation constant (Kd) in test [1] stood at 17 nM; with FcγRIIa, 1720 nM; in the test with FcγRIIIa, 290 nM; with FcRn it was 740 nM.
